From PMC3640046, “Structural Insights into a Wildtype Domain of the Oncoprotein E6 and Its Interaction with a PDZ Domain” (PLoS ONE, 2013)
Like-named read-outs stand apart in the source and are kept apart here. Residues, ends and D or L forms follow the SMILES beside them. No end group written: not given here.

Experiments:
[1] = assay type: physicochemical; conditions: N-terminal His6-tag, E. coli BL21(DE3), 20 °C overnight expression with 10 µM Zn2+; cell extract in lysis buffer pH 7.3; centrifugation 10,000 x g, 4 °C, 30 min; Coomassie stained SDS-PAGE
Procedure: Assessment of solubility of amino-terminally His6-tagged, recombinant E6 constructs derived from the high-risk types 16, 18, 26, 31, 45, 51, 59 and 97 as well as for the non-tumorigenic cutaneous type 1a was performed after bacterial expression in presence of 10 µM of Zn^2+ as solubility of E6 constructs is dependent on low µM concentrations of zinc. None of the wild-type sequence full-length E6 constructs nor their respective N-terminal zinc-binding domain (ZBD) turned out to be soluble (Table S1). […] The soluble constructs are denoted as E6Z2 (e.g. 51Z2 stands for the second, i.e. C-terminal, ZBD of HPV 51 E6). […]

hDlgPDZ2 [2] = target: T1, hDlgPDZ2 (Homo sapiens, UniProt Q12959); assay: Surface plasmon resonance (SPR) of hDlgPDZ2 with E6-derived peptides; assay type: binding; conditions: for kon: read-out: ka
T1 construct: host or cells: E. coli BL21 (DE3)
Procedure: Figure 5 51Z2 derived E6CT6 peptide versus E6CT11 peptide binding to hDlgPDZ2. SPR data. A E6CT6, B E6CT11. Sensorgrams of E6CT6 and E6CT11 binding injected in triplicate (black lines) are shown overlaid with the best fit derived from a 1∶1 interaction model including a mass transport term (orange lines). Peptide concentrations of 3.125, 6.25, 12.5, 25, 50, 100 and 200 µM are shown. The binding parameters were obtained by kinetic analysis of association and dissociation phases (left panels) or by steady state analysis (right panels) utilizing signals of plateaus depicted in the corresponding left panel.
A detailed description of methods is provided in Text S1. Briefly, recombinant proteins were generated in E. coli BL21 (DE3). Cells were disrupted and protein solubility in cell-lysates was assessed. Soluble proteins were FPLC-purified and initially characterized by CD spectroscopy, dynamic light scattering, gel filtration chromatography and NMR spectroscopy. The affinity of E6-derived peptides to hDlgPDZ2 was elucidated utilizing Surface Plasmon Resonance. hDlgPDZ2 was generated by bacterial expression and FPLC purification. The generation of the labeled E6CT11 peptide was performed as previously described. The purified, monomeric 51Z2 and the purified, monomeric hDlgPDZ2 in complex with purified E6CT11 were subsequently structurally characterized by standard solution state NMR techniques.
[1H-‐15N]-‐HSQC-‐spectra

hDlg = conditions: in vitro degradation assay; cited from earlier work
Excerpt: One PDZ domain containing protein targeted by E6 for degradation in vivo is the multi-domain protein hDlg (human Dlg/hDlg1/SAP-97). […] Human Dlg is part of the Scribble polarity complex that controls basolateral polarity and it is required for adherens junction formation and differentiation of epithelial cells. Human Dlg is expressed in human keratinocytes and localizes to nuclear, cytoplasmic, membrane-associate ...

hDlgPDZ2 [3] = target: T1, hDlgPDZ2; conditions: cited from earlier work
Excerpt: 51Z2 contains a carboxy-terminal PDZ-BM and the full-length protein causes the degradation of hDlg in vitro [32].

[4] = target: T2, second PDZ domain of human Dlg (hDlg/hDlg1/SAP-97) (human, UniProt Q12959 318-406, 15N labelled in the titrations with the peptides); assay: SPR; kinetic analysis
T2 chain: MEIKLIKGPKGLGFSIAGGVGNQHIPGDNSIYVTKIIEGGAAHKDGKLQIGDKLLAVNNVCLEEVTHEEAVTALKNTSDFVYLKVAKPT

[5] = target: T3, second PDZ domain of human Dlg (hDlg/hDlg1/SAP-97) (human, UniProt Q12959 318-406, 15N labelled in the titrations with the peptides); assay: SPR; peptides injected in triplicate at 3.125, 6.25, 12.5, 25, 50, 100 and 200 µM; kinetic analysis (1:1 interaction model with a mass transport term) and steady state analysis; conditions: both partners purified
T3 construct: also called hDlgPDZ2; PDZ domain 2 of hDlg; source: bacterial expression, FPLC purification

[6] = target: T3, second PDZ domain of human Dlg …; assay: NMR titration; [1H,15N]-HSQC of 100 µM 15N labeled 51Z2 without or with 3 fold excess of unlabeled hDlgPDZ2; slow exchange on the NMR time scale; conditions: both partners purified
[7] = kinetic analysis, 1:1 interaction model including mass transport term, 25 °C, pH 7.4
[8] = kinetic analysis, 1:1 interaction model including mass transport term, Biacore 2000, 25 °C, His6-tagged hDlgPDZ2 on NTA chip, peptide 3.125-200 µM, 150 mM NaCl, 10 mM HEPES, 3 mM EDTA, 0.005% polysorbate 20, pH 7.4, injected in triplicate, read-out: KD (kinetic analysis)

Question: Which “solubility of recombinant E6 construct” value [1] does the source give for “18 E6FL: full-length HPV 18 E6, His6-tagged” here?
Answer: Insoluble

Question: Which kon (hDlgPDZ2 [2]; [7]) does the source give for `CC(=O)N[C@@H](CCCNC(=N)N)C(=O)N[C@@H](CC(N)=O)C(=O)N[C@@H](CCC(=O)O)C(=O)N[C@H](C(=O)N[C@@H](CCC(N)=O)C(=O)N[C@H](C(=O)O)C(C)C)[C@@H](C)O` [E6CT6, Ac-RNETQV] (Ac-RNETQV-OH) here?
Answer: 54000 M⁻¹ s⁻¹

Question: And the Kd (hDlgPDZ2 [2]; [8])?
Answer: 28.42 ± 0.05 µM

Question: With `CC(=O)N[C@@H](CCC(N)=O)C(=O)N[C@@H](CCCNC(=N)N)C(=O)N[C@H](C(=O)N[C@@H](CCCNC(=N)N)C(=O)N[C@@H](CCC(N)=O)C(=O)N[C@@H](CCCNC(=N)N)C(=O)N[C@@H](CC(N)=O)C(=O)N[C@@H](CCC(=O)O)C(=O)N[C@H](C(=O)N[C@@H](CCC(N)=O)C(=O)N[C@H](C(=O)O)C(C)C)[C@@H](C)O)[C@@H](C)O` [E6CT11, Ac-QRTRQRNETQV] (Ac-QRTRQRNETQV-OH) as the molecule, how does the Kd (hDlgPDZ2 [2]; SPR, 25 °C, pH 7.4, read-out: Kd) read?
Answer: < 10 µM

Question: What about the kon (hDlgPDZ2 [2]; [7]) of the same molecule?
Answer: 104000 M⁻¹ s⁻¹

Question: And the Kd (hDlgPDZ2 [2]; [8])?
Answer: 9.79 ± 0.03 µM

Question: And the Kd (hDlgPDZ2 [2]; steady state analysis utilizing signals of plateaus, Biacore 2000, 25 °C, His6-tagged hDlgPDZ2 on NTA chip, peptide 3.125-200 µM, 150 mM NaCl, 10 mM HEPES, 3 mM EDTA, 0.005% polysorbate 20, pH 7.4, injected in triplicate, read-out: KD (steady state analysis))?
Answer: 9.63 ± 0.02 µM

Question: What does the source list for “HPV 18 E6: E6 oncoprotein of high-risk HPV 18”?
Answer: E6 dependent reduction of hDlg levels (hDlg): reduction of hDlg levels; interaction with hDlgPDZ2 (hDlgPDZ2 [3]): interact with hDlgPDZ2

Question: For Ac-RNETQV (also called E6CT6 peptide) [E6CT6, N-terminally truncated 6mer peptide of the HPV 51 E6 C-terminus (Ac-RNETQV)], which koff [4] is on record?
Answer: 1.53 s⁻¹

Question: What about the Kd [5] of the same molecule?
Answer: 28.3 µM

B1: E6CT11, 11mer peptide representing the complete disordered C-terminus of HPV 51 E6 (Ac-QRTRQRNETQV) (peptide)
peptide: Ac-QRTRQRNETQV
notes: HPV 51 E6 residues 141 to 151; also called E6CT11 peptide
Question: With B1 as the molecule, how does the koff [4] read?
Answer: 1.01 s⁻¹

Question: What about the Kd [5] of the same molecule?
Answer: 9.6 µM

Question: And the “fold change of the association rate against E6CT6” value [5]?
Answer: ~2 fold

B2: 31 (co) E6FL: full-length HPV 31 E6, His6-tagged (protein, UniProt P17386 1-149, looked up)
chain: MFKNPAERPRKLHELSSALEIPYDELRLNCVYCKGQLTETEVLDFAFTDLTIVYRDDTPHGVCTKCLRFYSKVSEFRWYRYSVYGTTLEKLTNKGICDLLIRCITCQRPLCPEEKQRHLDKKKRFHNIGGRWTGRCIACWRRPRTETQV
modifications: full-length His6 tag
notes: full-length HPV 31 E6, His6-tagged
Question: With B2 as the molecule, how does the “solubility of recombinant E6 construct” value [1] read?
Answer: Insoluble

B3: 16 (co) E6FL: full-length HPV 16 E6, His6-tagged (protein, UniProt P03126 1-158, looked up)
chain: MHQKRTAMFQDPQERPRKLPQLCTELQTTIHDIILECVYCKQQLLRREVYDFAFRDLCIVYRDGNPYAVCDKCLKFYSKISEYRHYCYSLYGTTLEQQYNKPLCDLLIRCINCQKPLCPEEKQRHLDKKQRFHNIRGRWTGRCMSCCRSSRTRRETQL
modifications: full-length His6 tag
notes: full-length HPV 16 E6, His6-tagged
Question: For B3, which “solubility of recombinant E6 construct” value [1] is on record?
Answer: Insoluble

B4: HPV 16 E6: E6 oncoprotein of high-risk HPV 16 (protein, UniProt P03126 1-158, looked up)
Protein E6: MHQKRTAMFQDPQERPRKLPQLCTELQTTIHDIILECVYCKQQLLRREVYDFAFRDLCIVYRDGNPYAVCDKCLKFYSKISEYRHYCYSLYGTTLEQQYNKPLCDLLIRCINCQKPLCPEEKQRHLDKKQRFHNIRGRWTGRCMSCCRSSRTRRETQL
Question: Which results are given for B4?
Answer: E6 dependent reduction of hDlg levels (hDlg): reduction of hDlg levels; interaction with hDlgPDZ2 (hDlgPDZ2 [3]): interact with hDlgPDZ2

B5: 45 E6FL: full-length HPV 45 E6, His6-tagged (protein, UniProt P21735 1-158, looked up)
chain: MARFDDPKQRPYKLPDLCTELNTSLQDVSIACVYCKATLERTEVYQFAFKDLCIVYRDCIAYAACHKCIDFYSRIRELRYYSNSVYGETLEKITNTELYNLLIRCLRCQKPLNPAEKRRHLKDKRRFHSIAGQYRGQCNTCCDQARQERLRRRRETQV
modifications: full-length His6 tag
notes: full-length HPV 45 E6, His6-tagged
Question: For B5, which “solubility of recombinant E6 construct” value [1] is on record?
Answer: Insoluble

B6: second (C-terminal) zinc-binding domain of HPV 51 E6 (domain or fragment)
chain: GSHMSRSVYGTTLEAITKKSLYDLSIRCHRCQRPLGPEEKQKLVDEKKRFHEIAGRWTGQCANCWQRTRQRNETQV
modifications: 15N labelled in the titration with hDlgPDZ2; binds one zinc ion
notes: source: E. coli BL21 (DE3), FPLC-purified
Question: Does B6 bind [6]?
Answer: binds
